Laboratory results: patent publication US20040248211A1, “ICAM-related protein” (priority 1992, published 2004)

What was measured:
Type in all cases: cell-based, human
[1] = system: resting PBLs; assay: T cell receptor induced tyrosine phosphorylation after pretreatment
Procedure: Briefly, resting PBLs were isolated and treated with ICR-1.1 or isotype matched control antibody as described above in Section I. After the cells were removed from antibody, they were washed one time in PBS, resuspended in PBS to a concentration of 1×10^6 cells/ml, and either treated or not treated with antisera to the T cell receptor (G19-4) for 2 minutes at 37° C. The cells were then spun down and lysed in boiling 2×SDS-sample buffer, boiled a further 5 minutes and resolved on 10% SDS-PAGE. Proteins were transferred to nitrocellulose and blotted with the 4G10 anti-phosphotyrosine antibody as described. […] This is consistent with the result that CD69 upregulation in these cells is also normal (Section L above), since CD69 expression requires PLC-gamma stimulated PKC activity and PLC-gamma activation requires tyrosine phosphorylation.

[2] = system: PBMC and CD4+ T-lymphocytes; assay: Costimulation of anti-CD3 induced lymphocyte proliferation; conditions: anti-CD3 G19 0.001 μg/well; antibody 10 μg/well; 3 days
Procedure: Because anti-ICAM-R antibodies with anti-CD3 antibodies costimulated early PBMC activation events, anti-ICAM-R antibodies were tested for the ability to costimulate lymphocyte proliferation induced by immobilized anti-CD3 antibody. In addition, to determine whether anti-ICAM-R antibodies costimulate T-lymphocytes in the absence of accessory cells, anti-ICAM-R antibodies were tested for their ability to costimulate proliferation of pure CD4^+ T-lymphocytes, isolated using negative'selection. To isolate CD4^+ cells PBMC were suspended in tissue culture medium, added to 75 ml tissue culture flasks (Corning) and incubated for 1 hour at 37° C., 5% CO2. Plastic nonadherent cells were then removed from the flask by gently rinsing once with PBS. The nonadherent cell fraction was suspended (10^7 cells/ml) in an antibody cocktail containing 1 μg/ml anti-CD8 antibody (Pharmingen, San Diego, Calif.), 1 μg/ml anti-CD19 (Becton Dickinson), 1 μg/ml anti-CD11b (Becton Dickinson) in 10% FBS-PBS (coating medium), and incubated for 1 hour at 4° C. Unbound antibody was removed by washing twice in coating medium. […] Lymphocyte proliferation was measured by ^3H-thymidine incorporation by the PMBC or CD4^+ cells. […]

[3] = system: CD4+ CD45RO+ / CD45RA+ T cells and plastic adherent cells; assay: SEA proliferation of memory or resting T cells with accessory cells; conditions: immobilized antibody 3 hours
Description: Because both T cells and accessory cells express high levels of ICAM-R, the inhibition of cell-cell contact dependent T cell activation during the response to SEA by ICR-1.1 could be mediated by ICR-1.1 binding to T cells, accessory cells or both. Additionally, because ICAM-R and ICAM-1 differ markedly in their expression on nonactivated T cells, it is possible that anti-ICAM-1 and anti-ICAM-R may inhibit the SEA response by targeting T cell subsets in different states of activation. Because the role of ICAM-R may differ in naive and memory cells, the ability of anti-ICAM-R antibodies to inhibit SEA induced proliferation of CD4^+ CD45RO^+ (“memory”) cells, or CD4^+ CD45RA^+ (“resting”) cells was tested. […] nonadherent PBMC (10^7 cells/ml) were incubated for 1 hour at 4° C. with a cocktail of antibodies (1μg/ml each) containing anti-CD8, anti-CD19, anti-CD11b, anti-HLA-DR (Becton Dickinson) and either anti-CD45RO (Amac) (to obtain CD45RA^+ CD4^+ cells), or anti-CD45RA (Amac) (to obtain CD45RO^+ CD4^+ cells) in coating medium. The cell suspension was washed twice with coating medium to remove unbound antibody and incubated with goat anti-mouse IgG coated magnetic beads. Cells bound to magnetic beads were then removed from the suspension using a strong magnet. […] Two hundred thousand purified memory T cells, resting T cells or plastic adherent cells were incubated on immobilized ICR-1.1, anti-ICAM-1 antibody LB-2 or anti-HLA-I antibody p10.1 (10 μg/ml) (Gerald Nepom, Virginia Mason Research Center, Seattle, Wash.) for 3 hours. The antibody treated memory or resting T cells were removed to clean wells and admixed with 2×10^4 plastic adherent cells. Antibody treated accessory cells were admixed with either untreated memory T cells or untreated resting T-cells. Each reconstituted culture was then stimulated with SEA (10 pg/ml). […]

B1: ICR-1.1: anti-ICAM-R monoclonal antibody, IgG2a, domain 1, ATCC HB 11053 (antibody, V domains shown)
VH: QVQLQQSGAELAKPGASVKMSCKASGYTFTVYWMHWVKQRPGQGLEWIGYINPNTDYTEYNQRFQDKATLTADKSSSTAYMQLSSLTSEDSAVYYCARWGGNSYGLDYWGQGTSVTVSS
VL: QIVLTQSPALMSASPGEKVTMTCSASSSVSYIYWYQQKPRSSPKPWIYLTSNLASGVPARFSGSGSGASYSLTISIMEAEDAATYYCQQWKSIPLTFGAGTKLELK
tyrosine phosphorylation in response to G19-4 after pretreatment [1]: there was an induction of tyrosine phosphorylation in response to G19-4 treatment | proliferative response to immobilized anti-CD3 [2]: increased the PBMC and purified CD4^+ cell response to anti-CD3 | CD45RA+ cell proliferation, pretreatment of adherent cells [3]: modest inhibition of CD45RA^+ cell proliferation | SEA response, pretreatment of CD45RA+ T cells (FIG. 14) [3]: did not affect SEA responses | SEA proliferation, pretreatment of T cells or accessory cells (FIG. 13) ([3]; versus p10.1 control): blocked proliferative responses to SEA
